As a reminder, the Kd is the free concentration of one partner at which half of the binding sites on the other are occupied at equilibrium, for simple one-to-one binding.

Test [1] concerns the target T1, Recombinant Cx43CT (carboxyl terminal domain of rat connexin43, residues 255-382, preceded by GPLG) (rat, UniProt P08050 255-382).
T1 construct: range 255-382; Made in E. coli as a GST fusion (pGEX-6P-2) and cleaved from GST; the protein used was derived from rat cDNA; 15N-labeled for NMR; also called recombinant CT; 15N-Cx43CT
Description: SPR, Cx43CT immobilized on carboxymethyl dextran. How it is done:
Recombinant Cx43CT was covalently bound to a carboxylmethyl dextran matrix (Salamon et al., “Surface Plasmon Resonance Spectroscopy as a Tool for Investigating the Biochemical and Biophysical Properties of Membrane Protein Systems. II: Applications to Biological Systems,” Biochim. Biophys. Acta 1331(2):131-152 (1997), which is hereby incorporated by reference in its entirety). Specific peptides were presented and, when feasible, dissociation constants (KD) were calculated from the time course of binding and unbinding of the ligand, using a 1:1 (Langmuir) association and dissociation kinetic model (Biacore software package). In both phases (association and dissociation), the first 5-8 seconds of recording were not included in the fit, to avoid artifacts resulting from peptide distribution within the flow cells (Lang et al., “Surface Plasmon Resonance as a Method to Study the Kinetics and Amplitude of Protein-protein Binding,” in PRACTICAL METHODS IN CARDIOVASCULAR […] 936-947 (Stefan Dhein, Friedrich Wilhelm Mohr & Mario Delmar eds., 2005), which is hereby incorporated by reference in its entirety).
Phage display allows for the rapid screening of thousands of peptides, but the characteristics of binding cannot be properly defined. Furthermore, the peptides are part of a capsid protein, which may affect the ability of the peptide to properly interact with the target protein. Therefore, some of the peptides identified by the phage screening were selected to, using SPR, further characterize their ability to bind Cx43CT. Recombinant Cx43CT was covalently bound to a carboxymethyl dextran matrix and synthetic peptides presented for binding. A total of six 12-mer peptides from the non-biased screening (peptides labeled RXP1 to RXP6 in Table 1) and 5 peptides from the biased screening (labeled RXP-A to RXP-E in Table 3) were tested. […] Peptide RXP4 (SEQ ID NO:15) caused the largest deflection in SPR signal. RXP4 (250 μM) was added at time “zero.” Washout was initiated after two minutes of exposure.
In general terms: SPR reads the build-up and loss of mass on a sensor chip optically.

For test [2], the target named is T1, Recombinant Cx43CT (carboxyl terminal …). In words: SPR, peptide 1.0 mM.
The target is the same in test [3]. In words: SPR, Cx43CT immobilized, 1:1 Langmuir kinetic fit, pH 6.5 and 7.4. The method, then:
A total of six 12-mer peptides from the non-biased screening (peptides labeled RXP1 to RXP6 in Table 1) and 5 peptides from the biased screening (labeled RXP-A to RXP-E in Table 3) were tested. […] Peptide RXP4 (SEQ ID NO:15) caused the largest deflection in SPR signal. RXP4 (250 μM) was added at time “zero.” Washout was initiated after two minutes of exposure. […] Higher concentrations of the peptide were tested but an asymptotic maximum response could not be detected. In addition, dissociation rates were too fast to reliably use them to calculate the kinetics of binding.
A different result emerged from the testing of the doublets. […] In contrast, peptide RXP-E (SEQ ID NO:10) generated a large, concentration-dependent deflection followed by a slow dissociation upon washout, as shown in FIG. 3B. The transitions were well-fit by exponential functions and the rates of association and dissociation were used as described in Example 4 to estimate the kinetic parameters. A full range of concentrations was tested in three separate occasions and at two different pHs of the solvent (6.5 and 7.4). No differences were observed as a function of pH.

The target of test [4] is Cx43 expressed in N2a cells (Cx43 gap junction channels). In words: cell-based or functional assay.
Test [5] concerns the target T2, Cx43 from rat heart lysate (rat, UniProt P08050 2-382).
T2 construct: Native protein pulled down from a tissue lysate; also called cardiac Cx43
In words: Cx43 pulldown assay, percent binding relative to RXPE; Example 19 does not state the source of Cx43.

T2 sequence (P08050 2-382 limits assumed): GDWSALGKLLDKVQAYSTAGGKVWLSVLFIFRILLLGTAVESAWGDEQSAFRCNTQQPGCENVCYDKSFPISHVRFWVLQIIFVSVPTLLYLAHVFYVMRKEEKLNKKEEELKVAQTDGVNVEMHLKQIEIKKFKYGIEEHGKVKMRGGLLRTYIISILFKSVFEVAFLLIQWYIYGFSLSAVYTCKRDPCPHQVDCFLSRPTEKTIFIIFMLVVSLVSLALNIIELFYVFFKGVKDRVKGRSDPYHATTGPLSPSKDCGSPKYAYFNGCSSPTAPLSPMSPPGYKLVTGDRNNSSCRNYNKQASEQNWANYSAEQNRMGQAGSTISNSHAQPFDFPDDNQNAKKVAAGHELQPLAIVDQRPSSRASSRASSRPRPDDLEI
T1 sequence (P08050 other isoform, or with tags, fused parts or gaps limits assumed): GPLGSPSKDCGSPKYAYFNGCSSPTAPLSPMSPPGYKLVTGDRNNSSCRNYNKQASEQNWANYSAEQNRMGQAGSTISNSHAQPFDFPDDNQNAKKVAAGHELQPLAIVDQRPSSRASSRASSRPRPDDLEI

B1: RXP-B (peptide)
peptide: EIQPRSPLMFSGGGSAHARVPFYSHSAKEARWPRAHR
notes: Synthetic doublet peptide from the biased phage display screen
Turning to B1, the binding result in test [1] is reported as “no binding”.

B2: Peptide 2504, AcRRKP-NH2 (peptide)
peptide: Ac-RRKP-NH2
On to B2, for which, in test [2], the “Response Dose” value was found to be 46.5 arbitrary units.

B3: Peptide 2505, AcRRNP-NH2 (peptide)
peptide: Ac-RRNP-NH2
Take B3: in test [2], the “Response Dose” value is 34.9 arbitrary units.

B4: Peptide 2503, AcRRKPRRKP-NH2 (peptide)
peptide: Ac-RRKPRRKP-NH2
Consider B4, for which the “Response Dose” value in test [2] worked out at 295 arbitrary units.

B5: RXP-A (peptide)
peptide: DVPGRDPGYIKGGGSAHARVPFYSHSLNRNRKPSLYQ
notes: as for B1
B5: the binding result in test [1] is “no binding”.

B6: RXP-D (peptide)
peptide: WEEPRRPFTMSGGGSAETHARVPFYSHSPMRHRLPGVHL
notes: as for B1
As for B6, the binding result in test [1] is “no binding”.

B7: RXP-C (peptide)
peptide: GIAAREPNSHDGGGSAHARVPFYSHSRDLWRKPAKSL
notes: as for B1
As for B7, in test [1], the binding result was “no binding”.

B8: RXP-E (peptide)
peptide: SDDLRSPQLHNGGGSAVPFYSHSHMVRRKPRNPR
notes: as for B1
As for B8, in test [3], the Kd worked out at 3.9 µM. Besides, in test [4], the “junctional conductance (Gj) relative to control at pipette pH 6.2 (acidification-induced uncoupling)” value was 57 % of control and the “junctional conductance (Gj) relative to control during octanol superfusion” value is 57.6 % of control.

B9: 29 (peptide)
peptide: SDDLRSPQLHNGGGSAVPFYSHSHMVRRKPANAR
notes: also called RXPE mutant (31,33A)
For B9, the binding result in test [5] is on record as “no binding”.

B10: 31 (peptide)
peptide: SDDLASAQLHNGGGSAVPFYSHSHMVRRKAANPR
notes: also called RXPE mutant (5,7,30,31A)
Regarding B10, in test [5], the binding result is listed as “no binding”.

B11: 58 (peptide)
peptide: SDDLASAQLHNGGGSAVPFYSHSHMVRRKPANAR
notes: also called RXPE mutant (5,7,31,33pa)
For the molecule B11, in test [5], the binding result is “no binding”.

B12: Peptide 2501, AcRNPRNP-NH2 (peptide)
peptide: Ac-RNPRNP-NH2
As for B12, the “Response Dose” value in test [2] amounted to 24.8 arbitrary units.

For the origin of these results see patent US20090075291A1 (RESEARCH FOUNDATION OF STATE UNIVERSITY OF NEW YORK, published 2009).
